Binding result and Kd data for one molecule are collected here from patent US10689452 (UNIVERSIT T STUTTGART, dated 2020).

Test [1] addresses T1, mouse TNFR2-Fc fusion protein (mouse, UniProt P25119 23-258).
T1 construct: range 23-258; not shown: Fc part from vector pSecTagL1-Fc
T1 sequence (looked up): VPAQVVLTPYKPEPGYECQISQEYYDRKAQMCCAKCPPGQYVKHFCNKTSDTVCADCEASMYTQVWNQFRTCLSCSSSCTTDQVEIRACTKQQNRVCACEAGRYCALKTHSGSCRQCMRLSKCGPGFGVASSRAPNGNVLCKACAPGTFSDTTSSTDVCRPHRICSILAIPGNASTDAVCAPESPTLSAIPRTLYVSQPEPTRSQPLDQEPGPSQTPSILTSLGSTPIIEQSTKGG
Kind of test: ELISA on coated receptor-Fc fusion proteins, one antibody concentration (not given on the sheet). How it is done:
(§1) FIG. 12. Species selectivity of scFv13.7 derivatives. […] Presented are mean and SD of two individual experiments.
(§2) Microtiter plates were coated with 100 µl of the indicated protein (1 µg/ml in PBS, see Table 3.3) and incubated at 4° C. over night. The residual binding sites were blocked with 2% MPBS (skim milk in PBS, 200 µl per well) at room temperature for 2 hours and subsequently washed twice with PBS. 100 µl of the samples diluted in 2% MPBS were incubated at room temperature for 1 hour prior to the last incubation step with 100 µl of the HRP conjugated detection antibodies in 2% MPBS. In the case of competition experiments, both analyzed protein samples were prepared individually (either titrated or diluted to a single concentration) and mixed before they were applied to the plate. Bound protein was detected with 100 µl TMB substrate solution, the HRP-reaction was stopped by the addition of 50 µl 1 M H2SO4 and the absorption at the wavelength of 450 nm was measured using the Infinite microtiter plate reader (TECAN, Maennedorf, Switzerland). Between each incubation step and in advance of the detection, the plates were washed three times with PBST and twice with PBS.
(ELISA stands for enzyme-linked immunosorbent assay.)

Test [2] concerns the target T2, mouse TNFR1-Fc fusion protein (mouse, UniProt P25118 30-212).
T2 construct: range 30-212; also called moR1; not shown: Fc part from vector pSecTagL1-Fc
T2 sequence (looked up): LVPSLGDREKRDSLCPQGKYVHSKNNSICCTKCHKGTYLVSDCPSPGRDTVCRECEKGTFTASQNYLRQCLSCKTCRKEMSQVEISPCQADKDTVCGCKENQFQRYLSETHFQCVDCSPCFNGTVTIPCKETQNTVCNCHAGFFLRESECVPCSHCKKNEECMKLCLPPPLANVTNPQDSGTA
The description is as above. How it is done: as §1, §2

For test [3], the target named is T3, human TNFR2-Fc fusion protein (human, UniProt P20333 23-257).
T3 construct: whole entry named; also called huTNFR2
T3 sequence (looked up): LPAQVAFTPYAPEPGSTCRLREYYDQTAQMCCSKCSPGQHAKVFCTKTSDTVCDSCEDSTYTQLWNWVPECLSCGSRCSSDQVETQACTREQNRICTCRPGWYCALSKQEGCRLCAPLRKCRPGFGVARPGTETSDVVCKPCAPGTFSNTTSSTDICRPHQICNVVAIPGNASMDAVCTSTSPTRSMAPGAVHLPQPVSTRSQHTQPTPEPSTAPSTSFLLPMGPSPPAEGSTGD
The test is described as above. How it is done: as §1, §2

Test [4] addresses T4, human TNFR1-Fc fusion protein (human, UniProt P19438 29-211).
T4 construct: range 29-211; Made in stably transfected HEK293 cells; coated on ELISA plates or immobilised on QCM chips; also called huTNFR1-Fc; human TNFR-Fc; not shown: Fc part from vector pSecTagL1-Fc
T4 sequence (looked up): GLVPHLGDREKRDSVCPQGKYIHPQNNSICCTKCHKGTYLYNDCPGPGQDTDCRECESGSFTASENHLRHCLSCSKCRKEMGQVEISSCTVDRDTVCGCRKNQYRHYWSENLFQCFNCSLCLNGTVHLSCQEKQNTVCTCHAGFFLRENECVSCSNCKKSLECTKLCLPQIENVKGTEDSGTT
In words: QCM, human TNFR1-Fc, moderate receptor density (86 Hz), biphasic fit, KD1 (low-affinity part). How it is done:
(§3) Real-time binding dynamics in protein-protein interactions were determined by quartz crystal microbalance measurements (A-100 C-Fast or Cell-200 C-Fast, Attana, Stockholm, Sweden). One of the binding partners (ligand, e.g. TNFR1-Fc) was chemically immobilized on a carboxyl sensor chip according to the manufacturer's protocol at different densities (nearly 200 Hz in the case of saturating conditions to confirm previously published results and 50-100 Hz, in particular at about 50 Hz, to establish conditions of lower receptor density, better resembling the situation on the cellular surface). Binding experiments were performed with samples (analyte) diluted in PBST (PBS, 0.1% Tween 20) at pH 7.4 with a flow rate of 25 µl/min at 37° C. The chip was regenerated with 25 µl 5 mM NaOH or 20 mM glycine, pH 2.0. Every third measurement, an injection of running buffer was measured which was subtracted from the binding curve. Data were collected using the software provided by Attana for the particular device and analyzed by Attaché Office Evaluation software (Attana, Stockholm, Sweden) and TraceDrawe (ridgview instruments, Vange, Sweden).

Test [5] addresses T4, human TNFR1-Fc fusion protein. In words: QCM, human TNFR1-Fc, moderate receptor density (86 Hz), biphasic fit, KD2 (high-affinity part). How it is done: as §3

B1: ATROSAB (antibody, IgG1, V domains shown)
VH: QVQLVQSGAEVKKPGSSVKVSCKASGYTFTDFYINWVRQAPGQGLEWIGEIYPYSGHAYYNEKFKARVTITADKSTSTAYMELSSLRSEDTAVYYCARWDFLDYWGQGTTVTVSS
VL: DIVMTQSPLSLPVTPGEPASISCRSSQSLLHSNGNTYLHWYLQKPGQSPQLLIYTVSNRFSGVPDRFSGSGSGTDFTLKISRVEAEDVGVYYCSQSTHVPYTFGGGTKVEIKR
notes: Humanized full-length IgG1 with a modified Fc region deficient in mediating effector functions (made according to WO2012035141); also called full length IgG ATROSAB
For orientation: Kd means the free concentration of one partner at which half of the binding sites on the other are occupied at equilibrium, for simple one-to-one binding. Low readings indicate tighter binding, high ones weaker binding. Turning to B1, the binding result in test [1], in test [2] and in test [3] was “no binding” throughout. Also, the values for the Kd in test [4] and in test [5] were 78 nM and 0.38 nM, respectively.
